# The supplement of paper PMC10567573
# ± gives the standard deviation.
# Assay: protein stability index of a GFP-peptide fusion (GPS, HEK-293T) (PSI 1-6); higher = more stable
# Settings: c terminus: a fixed tail appended
# 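Note: 24-mer peptide tiles fused after GFP, lentivirally expressed, FACS-sorted into six equal bins by GFP/DsRed ratio, decoded by Illumina sequencing, PSI is the read-weighted mean bin number.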
Sequence,protein stability index (treatment: DMSO),"protein stability index (treatment: MLN4924 1 uM, 8 h)"
SSMLTGILWDTLLRLCAWGLASWP [POMT2],3.12 ± 0.62,2.66 ± 0.61
SSPVTTLTQTMHDLAGLGSETPKS [CDC25B],4.97 ± 0.31,5.13 ± 0.14
SSSDLVMRARDSVYHIECFRCSVC [ISL2],2.5 ± 0.33,2.72 ± 0.51
SSSSSSSSSSSSSSSSGPGHGEPD [TMEM40],5.49 ± 0.36,5.4 ± 0.35
SSYSSCYSFGSGGGYGSSFGGVDG [KRT17],2.69 ± 0.38,2.53 ± 0.2
STFASLIGPFGGFFASGFKRAFKI [CDS2],2.21 ± 0.44,2.37 ± 0.38
STRQTQSWTAVTPQQTWASPAEVV [C18orf25],3.63 ± 0.078,3.98 ± 0.24
STSQGCAQPQGAPCCSSSPEEPLN [FEM1A],5.37 ± 0.23,5.32 ± 0.15
STWALYGRAVDQDKVLRFAQQIRL [MYORG],2.29 ± 0.23,2.25 ± 0.33
SVLNGKFANLIKEFVIIDCRYPYE [CDC25A],2.63 ± 0.36,2.55 ± 1
SVNWRTGSFHGPGHISLRRENSSD [DLC1],3.78 ± 0.21,3.86 ± 0.2
SVREVTQIKCIELKSELGRKWHKA [P2RY14],2.83 ± 0.24,3.23 ± 0.29
SWWADLRALARNLIFGLITCLTGV [SPNS1],3.88 ± 0.43,3.92 ± 0.24
SWYHWKGFEFSVPFTEMKLRPRNF [TNXB],2.47 ± 0.81,3.15 ± 0.53
TCSRVDYCLLSDHGCEYSCVNMDR [MATN2],2.84 ± 0.24,2.82 ± 0.32
TCVAVGSPMPYVKWMLGAEDLTPE [PTPRD],2.97 ± 0.33,3.14 ± 0.38
TDANLPSGGKGFKLRRQPSEPKRS [RAB22A],4.88 ± 0.41,5.08 ± 0.17
TDGGGWLVFQRRMDGQTDFWRDWE [TNXB],2.33 ± 0.53,2.25 ± 0.65
TDGMILGPEDLSYQIYDVSGESNS [LARP4],4.71 ± 0.22,4.58 ± 0.37
TEDSPLGTVVALLNVHDLDSEQNG [PCDHGA10],4.86 ± 0.18,4.94 ± 0.27
TEKLKANAESSKTWLKGKFTELRL [TRIM14],2.53 ± 0.43,2.48 ± 0.42
TEPEDDRGPVVPKHSTFGQSLTQR [GNAS],4.89 ± 0.31,4.85 ± 0.2

Sequence,protein stability index (treatment: DMSO),"protein stability index (treatment: MLN4924 1 uM, 8 h)"
TGEFLKLPFERLAFVLSSNSLKHC [KLHL13],2.55 ± 0.73,2.85 ± 0.52
TGTVHRIDNTTVIYNSNIFTDPFF [KCNA1],2.89 ± 0.27,3.05 ± 0.2
THQHWQQFEPQLTLWDVFGANKEV [RSAD1],2.65 ± 0.34,2.66 ± 0.24
TIEELQQKILCAKAENARLVVNID [KRT34],3.37 ± 0.31,3.41 ± 0.48
TIVNFPITNVDLREYLSEEVQAVH [USP39],2.92 ± 0.18,3.41 ± 0.41
TKLPENQAIQMRLVDVACKHLTDT [INTS4],3.41 ± 0.11,3.58 ± 0.069
TKRDSFLKRLYRAPIDWIEEYTTG [ALG2],2.18 ± 0.54,2.23 ± 0.4
TLEKCEKVKTMEVTSVSIELEKNF [TRIM39],4.16 ± 0.21,4.15 ± 0.23
TLGYMPTEMELLEVSQHIKMRMGG [CABP4],2.96 ± 0.18,2.94 ± 0.54
TNSDTPTSFNHMDSDKLSGLWSRI [TOR1AIP2],3.21 ± 0.21,3.1 ± 0.39
TPLTEGSEDLDGHSDPEESFARDL [RETREG3],5.51 ± 0.18,5.524 ± 0.053
TPVDMWSVGCIFAEMFRRKPLFCG [CDK4],2.98 ± 0.97,2.64 ± 0.61
TQESTFQELCEGLLEESDGEGEPG [NOP53],5.59 ± 0.22,5.51 ± 0.22
TRDGFKLVMASLYHIYVALEEEIE [HMOX1],2.15 ± 0.52,2.56 ± 0.51
TRLFHDSAVTSVRILQDEQYLMAS [DCAF4],2.76 ± 0.18,2.88 ± 0.25
TRVPRAAIVFTDGRAQDDVSEWAS [MATN2],4.34 ± 0.36,4.48 ± 0.45
TSILSRLPPEALTAPSGGQWGAEP [RNF208],3.94 ± 0.14,4.05 ± 0.11
TSYCELLQNKVPLLGSSTACIVVL [PPTC7],2.8 ± 0.1,2.55 ± 0.09
TTDPDLILEVLRSSPMVQVDEKGE [LARP4],4.61 ± 0.32,4.73 ± 0.24
TTKCVRQYEGHVNEYAYLPLHVHE [DCAF4],2.92 ± 0.39,3.17 ± 0.2
TTSEEAVGGATPDQTTSEETVGGA [HDAC6],5.5 ± 0.32,5.57 ± 0.27
TTSTLASSLPGHAAKTLPGGAGKG [EHMT1],4.77 ± 0.15,5.28 ± 0.16
